These results are taken from patent publication US20140357851A1.

In this test the target is PCSK9 S123R (human) (UniProt Q8NBP7). The experiment in a line: Luminex bead assay.

B1: 21B12 (isotype as tested not stated) (antibody, V domains shown)
VH: QVQLVQSGAEVKKPGASVKVSCKASGYTLTSYGISWVRQAPGQGLEWMGWVSFYNGNTNYAQKLQGRGTMTTDPSTSTAYMELRSLRSDDTAVYYCARGYGMDVWGQGTTVTVSS
VL: QSALTQPASVSGSPGQSITISCTGTSSDVGGYNSVSWYQQHPGKAPKLMIYEVSNRPSGVSNRFSGSKSGNTASLTISGLQAEDEADYYCNSYTSTSMVFGGGTKLTVL
B1 returned a BmaxPerWT (% of wild type) of 87.6 and a RawMaxPerWT (% of wild type) of 88.1.
